From paper PMC5730846 come the findings set out here.

The target of the assay is recombinant Hsp90α (human) (UniProt P07900).

B1: Tsc1-D-His6 (domain or fragment)
chain: DGCSDSMVGHNEEASGHNGETKTPRPSSARGSSGSRGGGGSSSSSSELSTPEKPPHQRAGPFSSRWETTMGEASASIPTTVGSLPSSKSFLGMKARELFRNKSESQCDEDGMTSSLSESLKTELGKDLGVEAKIPLNLDGPHPSPPTPDSVGQLHIMDYNETHHEHS
Regarding B1, the inhibition of Hsp90α ATPase activity in vitro (PiPer Phosphate Assay) by 100 nM Tsc1-D is 72%.
